In IntAct's records for PubMed 22510990:

B1: Protein Niban 1 (Homo sapiens), Q9BZQ8 (parent)
chain: MGGSASSQLDEGKCAYIRGKTEAAIKNFSPYYSRQYSVAFCNHVRTEVEQQRDLTSQFLKTKPPLAPGTILYEAELSQFSEDIKKWKERYVVVKNDYAVESYENKEAYQRGAAPKCRILPAGGKVLTSEDEYNLLSDRHFPDPLASSEKENTQPFVVLPKEFPVYLWQPFFRHGYFCFHEAADQKRFSALLSDCVRHLNHDYMKQMTFEAQAFLEAVQFFRQEKGHYGSWEMITGDEIQILSNLVMEELLPTLQTDLLPKMKGKKNDRKRTWLGLLEEAYTLVQHQVSEGLSALKEECRALTKGLEGTIRSDMDQIVNSKNYLIGKIKAMVAQPAEKSCLESVQPFLASILEELMGPVSSGFSEVRVLFEKEVNEVSQNFQTTKDSVQLKEHLDRLMNLPLHSVKMEPCYTKVNLLHERLQDLKSRFRFPHIDLVVQRTQNYMQELMENAVFTFEQLLSPHLQGEASKTAVAIEKVKLRVLKQYDYDSSTIRKKIFQEALVQITLPTVQKALASTCKPELQKYEQFIFADHTNMIHVENVYEEILHQILLDETLKVIKEAAILKKHNLFEDNMALPSESVSSLTDLKPPTGSNQASPARRASAILPGVLGSETLSNEVFQESEEEKQPEVPSSLAKGESLSLPGPSPPPDGTEQVIISRVDDPVVNPVATEDTAGLPGTCSSELEFGGTLEDEEPAQEEPEPITASGSLKALRKLLTASVEVPVDSAPVMEEDTNGESHVPQENEEEEEKEPSQAAAIHPDNCEESEVSEREAQPPCPEAHGEELGGFPEVGSPASPPASGGLTEEPLGPMEGELPGEACTLTAHEGRGGKCTEEGDASQQEGCTLGSDPICLSESQVSEEQEEMGGQSSAAQATASVNAEEIKVARIHECQWVVEDAPNPDVLLSHKDDVKEGEGGQESFPELPSEE

Variants of: B1
Details: with npm_human NPM1, P06748
npm_human NPM1, P06748, sequence (P06748 whole entry): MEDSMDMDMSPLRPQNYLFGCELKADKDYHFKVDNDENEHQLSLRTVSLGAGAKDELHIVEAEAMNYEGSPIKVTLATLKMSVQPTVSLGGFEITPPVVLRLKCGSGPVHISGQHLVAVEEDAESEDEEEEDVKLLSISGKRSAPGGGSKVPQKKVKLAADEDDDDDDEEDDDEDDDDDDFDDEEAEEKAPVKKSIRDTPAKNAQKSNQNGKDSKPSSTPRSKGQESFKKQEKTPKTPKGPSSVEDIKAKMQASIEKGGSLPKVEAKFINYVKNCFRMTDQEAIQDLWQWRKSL

Row | Variant | effect of a mutation on the interaction
1 | S602A | decreasing interaction

Variants of: B1
Details: with npm_human NPM1, P06748
Remark: another data set of the same source

Row | Variant | effect of a mutation on the interaction
2 | S602D | increasing interaction
